Source: patent publication US9371374
Numbering of substitutions follows the chain as printed.

T1: HCV Core1-169 (HCV-1), P26664
T1 chain: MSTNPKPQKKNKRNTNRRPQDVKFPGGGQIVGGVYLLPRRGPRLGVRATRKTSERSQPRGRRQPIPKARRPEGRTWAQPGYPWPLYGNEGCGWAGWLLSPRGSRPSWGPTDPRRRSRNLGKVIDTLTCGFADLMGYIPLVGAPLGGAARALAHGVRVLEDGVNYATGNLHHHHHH

B1: HCV 208A-874 (antibody, V domains shown)
VH: QVQLQQPGAELVKPGASVKLSCKASGYTLSSYWMHWVKQRPGQGLEWIGEIHPSDSYTSYNQKFKDKATLTVDKSSSTAYMQLSSLTSEDSAVYYCARGGYYRYDEFAYWGQGTLVTVSA
VL: DIVMTQSHKFMSTSIGDRVSITCKASQNVSPAVAWYQQKPGQSPKLLIYSASSRYTGVPDRFTGSGSGTAFTFTISSVQAEDLAVYFCQQHFSTPWTFGGGTMLEIKR
B2: HCV 208A-983 (antibody, V domains shown)
VH: QGQMQQSGAELVKPGASVKLSCKTSGFTFSSSYFSWLKQKPGQSLEWIAWIYAGTGNTIYNQKFTDKAQLTVDTASSTAFMQLSSLTIEDSAIYYCAISGTGFTYWGQGTLVTVSA
VL: DVLMTQTPLSLPVNLGDQASISCRSSQSLLHSNGNTYLEWFLQKPGQSPKLLIYNVSNRFSGVPDRFSGSGSGTDFTLKISRVEAEDLGVYYCFQGSHVPFTFGSGTKLAIKR
B3: HCV 208B-174 (antibody, V domains shown)
VH: EVKLEESGGGLVQPGGSMKLSCVASGFSFSSYWMSWVRQSPEKGLDWVAEIRLRSDNYATHYAESVKGRFTISRDDSISRLYLQMNTLRAEDTGIYYCTWMTYWGQGTLVTVSA
VL: QNVLTQSPAIMSASPGEKVTMSCSASSSVTYMFWYQLKPESSPRLLIYDTSNLASGVPVRFSGSGSGTSYSLTISRMEAEDAATYYCQEWSSYPLTFGAGTKLDLKR
B4: HCV 208B-408 (antibody, V domains shown)
VH: EVKLVESGGGLVQPGGSLRLSCASSGFTFTDYYMSWVRQPPGKALEWLGFIRNKAYGYTTEFSASVNGRFTISRDDSQSVPYLQMNTLRAEDSATYYCARVLYYDYGGFAYWGQGTLVTVST
VL: DIQMTQSPASLSASVGETVTITCRASGNIHTYLAWYQQKQGKSPQLLVYNANTLADGVPSRFSGSGSGTQFSLKINSLQPDDFGSYYCQHFWSAPWTFGGGTQLEIKR
B5: HCV 208B-862 (antibody)
chain 1: DVQLQESGPGLVKPSQSLSLTCTVTGYSITSDYAWNWIRQFPGNKLEWMGYISYSGTTVYSPSLKSRISITRDTSKNQFFLQLNSVTIEDSATYYCGGNYWGQGTLVTVSA
chain 2: DVVLTQTPLSLPLSLGDQASISCRSSQTLLHSDGDTYLHWYLQKPGQSPKLLIYKLSNRFSGVPDRFSGSGSGTDFTLKISRVEAEDLGVYFCSQSTHVPYTFGGGTKLEIKR
B6: HCV 208B-793 (antibody, V domains shown)
VH: EVKLVESGGGLVQPGGSLKLSCAASGFTFSSYAMSWVRQTPERRLEWVTYISNGGGSTYYSDTVKGRFTFSRDNAKNTLYLQMSSLKSEDTAMYYCARHGLGRTGFASWGQGTLVTVSA
VL: DIVMTQSHKFMSTSVGDRVSITCKASQDVGTAVAWYQQKPGQSPKLLIYWASTRHTGVPDRFTGSGSGTDFTLTISNVQSEDLADYFCQQYSNYLTFGAGTKLEVKR
B7: HCV 208B-911 (antibody, V domains shown)
VH: QVHLQQPGAELVRPGVSVKLSCKASGYTFTTYSINWMKQRPGQGLEWIGNIYPSTSHTNYNQKFRDKATMTVDKSSSTAYMQLSSPTSEDSAVYYCTINAYSMDYWGQGTSVTVSS
VL: QIVLTQSPEIMSASPGEKVTITCSASSSVSFMYWFQQKPGTSPKLWIYITSNLASGVPTRFSGSGSGTSYSLTISRMEAEDAATYYCQQRSSFPYTFGGGTKLEMKR
B8: HCV 208B-672 (antibody, V domains shown)
VH: EVKLVESGGSLVQPGGSLKLSCAASGFNFNTYAMSWVRQTPEKRLEWVAYISNGGGNTYYVDTVKGRFTISRDNAKNTLYLRMSSLKSEDTAMYYCARHGLYWGYSMDYWGQGTSVTVSS
VL: DIQMTQSPSSLSASLGERVSLTCRASQDIGGSINWLQQEPDGTIKRLIYATSSLDSGVPKRFSGSRSGSDYSLTISSLESEDFVDYYCLQYASSPPTFGGGTKLEIKR
B9: HCV 208B-556 (antibody, V domains shown)
VH: QLQQSGPVLVKPGASVMISCKTSGYTFTENAMHWVKQSHGKSLEWIGGVNPNNGDTIFNQKFKGKATLTVDKSSSTAFMEFRSLTSEESTVYYCVRRELDFFDYWGQGTSVTVSS
VL: DIVLTQSPASLAVSLGQRATISCRASQSVSTSRYSYMHWYQQKPGQPPKLLIKYASNLESGVPARFSGSGSGTDFTLNIHPVAEEDTATYYCQHSWEFPFTFGSGTKLEIKR
B10: HCV 208B-560 (antibody, V domains shown)
VH: EVQLQQSGPELEKPGASVKISCKTSGYTFTEYAMHWVKQSHGMSLEWIGGINPSNGNAIYNQIFKDKATLTVDRSSSTAYMGLRSLTFGDSGVYFCVRRQLDFFDYWGQGASLTVSS
VL: B9 VL with L4V, M37L, A83G
B11: HCV 208B-515 (antibody, V domains shown)
VH: QVQLQQPGAELVKPGASLKLSCRASGYTFTSYWIHWVKQRPGQGLEWIGEIDPSDSYTNYNQKFKGKATLTVDKSSRAAYMQLSSLTSEDSAVYYCARHYYGVFDSWGQGTKLTVSS
VL: QIVFTQYPAIMSASLGERVTMTCTASSSVTSSYLHWFQQKPGSSPKLWIYSTSNPGSGVPARFSGRGSGTSYSLSISSMEAEDAATYYCLQFHRSPWTFGGGTKLEIRR
B12: HCV 208B-612 (antibody, V domains shown)
VH: EVQLQQSGPELVKPGASVKMSCKASGYRFTSYVMHWVRQKPGQGLEWIGYIDPHNDDTKYSEKFRGKATLTSDKSSTTAYMELSSLTSEDSAVYYCVRYSYDRDYSPMDYWGQGTSVTVSS
VL: QIVLTQSPTLMSASPGEKVTMTCSASSTVTYIYWYQQKPGSSPRLWMYDTFNLVSGVPARFSGSRSGTSYFLTISSMEGEDAATYYCQQYSDSPYTFGGGTKLEIKR
B13: HCV 208B-547 (antibody, V domains shown)
VH: QVQLQQSGAELAKPGASVKMSCKASGYTFTSNKMHWAKQRPGQGLEWIGYIDPSSGYTEYNQKIKDKATLTADKSSSTAYMQLSSLTSEDSAVYYCTNFAYWGQGTLVTVSA
VL: EVVLTQSPAITAASLGQKVTITCRASSSVSYMHWYRQKSGTSPQPWIYEISTLASGVPTRFRASGSGTSYSLTISSMEAEDAAIYYCQQWNYPLTFGAGTKLELKR
B14: HCV 208B-589 (antibody, V domains shown)
VH: B13 VH with E10G, S31A, Q62H, K65Q, K74T, S88F
VL: DIVMTQTPLTLSVTIGQPASISCKSSQSLLFTNGKTYLNWFLQRPGQSPKRLIYLLSKLDSGVPDRFSGSGSGTDFTLKISRVEAEDLGVYYCLQSTYFPLTFGAGTKLELKR
B15: HCV 208B-826 (antibody, V domains shown)
VH: DVQLVESGGGLVQAGGSRKLSCAASGFPFSSFGMHWVRQAPEKGLEWVASISSRTSKIYYADNLKGRFTISRDNPKNTLFLQMTSLGSEDTAMYYCVRSVFGNSYWFFDVWGAGTTVTVSS
VL: DIVLTQSPATLSVTPGDRVSLSCRASQRIYNYLHWYQQKSHESPRLLTKYASQSISGIPSRFSGSGSGTDFILTINSVETEDFGMYFCQQSNSWPLTFGAGTKLELRR
B16: HCV 208B-517 (antibody, V domains shown)
VH: QVQLKQSGPGLVQPSQSLSITCTVSGFSLITHGVHWVRQSPGKGLEWLGVIWSGGSTDYNAAFISRLSISKDTSKSQVFLKMSSLQADDTAIYYCARNGGATAFDYWGQGTTLTVSS
VL: DIVMTQSPATLSVTPGDRVSLSCRASQSISDYLHWYQQKSHESPRLLIKYASQSISGIPSRFRGSGSGSHFTLSINSVEPEDVGVYYCQNGHSFPWTFGGGTKLEIKR
B17: HCV 208B-822 (antibody, V domains shown)
VH: QVQLKQSGPGLVQPSQSLSITCTVSGFSLITYGVHWVRQSPGKGLEWLGVIWGGGSTGYNAAFVSRLNITKDNSKSQVFFKMNSLQPDDTAIYYCARNGGATVFDYWGQGTTLTVSS
VL: B16 VL with S28T, R63S

These binders were tested against HCV Core1-169 (HCV-1) (UniProt P26664) (assay: SPR sandwich, C11-9 capture). Conditions: not given.

Binder	expected % binding
B1	< 1%

The binders below were run against HCV Core1-169 (HCV-1) (UniProt P26664) (assay: SPR sandwich, C11-3 capture). Conditions: not given.

Binder	expected % binding
B1	< 1%

These binders were tested against HCV Core1-169 (HCV-1) (UniProt P26664) (assay: SPR sandwich, C11-14 capture). Conditions: not given.

Binder	expected % binding
B1	< 1%

Each binder was assayed against HCV Core1-169 (HCV-1) (UniProt P26664) (assay: SPR sandwich, C11-7 capture). Conditions: not given.

Binder	expected % binding
B1	< 1%

Target: T1, HCV Core1-169 (HCV-1), P26664
Assay: SPR sandwich, C11-3 capture
Conditions: remark: other sources report otherwise

Binder	expected % binding
B2	< 1%
B3	1.6%

The binders below were run against biotinylated HCV core peptide 134-154 (Peptide 1) (HCV-1) (assay: EIA, captured mAb). Conditions: not given.

Binder	Reactivity (OD492)
B1	0.05 OD
B4	0.81 OD
B2	3.03 OD
B5	0.21 OD
B6	0.09 OD
B7	0.09 OD
B3	0.08 OD
B8	0.08 OD
B9	0.13 OD
B10	0.11 OD
B11	0.51 OD
B12	3.05 OD
B13	0.12 OD
B14	0.27 OD
B15	0.53 OD
B16	0.1 OD
B17	0.08 OD

What follows are binders tested against biotinylated HCV core peptide 141-161 (Peptide 2) (HCV-1) (assay: EIA, captured mAb). Conditions: not given.

Binder	Reactivity (OD492)
B1	0.73 OD
B4	0.2 OD
B2	0.4 OD
B5	3.28 OD
B6	0.72 OD
B7	0.09 OD
B3	1.26 OD
B8	2.79 OD
B9	3.07 OD
B10	3.9 OD
B11	0.13 OD
B12	3.04 OD
B13	0.08 OD
B14	0.1 OD
B15	1.35 OD
B16	0.41 OD
B17	1.35 OD

The binders below were run against biotinylated HCV core peptide 151-171 (Peptide 3) (HCV-1) (assay: EIA, captured mAb). Conditions: not given.

Binder	Reactivity (OD492)
B1	0.06 OD
B4	0.16 OD
B2	0.05 OD
B5	0.1 OD
B6	0.09 OD
B7	0.71 OD
B3	0.07 OD
B8	0.1 OD
B9	0.18 OD
B10	0.14 OD
B11	0.06 OD
B12	0.15 OD
B13	2.9 OD
B14	2.85 OD
B15	0.08 OD
B16	0.7 OD
B17	0.07 OD

Target: T1, HCV Core1-169 (HCV-1), P26664
Assay: SPR sandwich, C11-9 capture
Conditions: remark: other sources report otherwise

Binder	expected % binding
B2	< 1%
B3	< 1%

Target: T1, HCV Core1-169 (HCV-1), P26664
Assay: SPR sandwich, C11-7 capture
Conditions: remark: other sources report otherwise

Binder	expected % binding
B2	< 1%
B3	1.5%

Target: T1, HCV Core1-169 (HCV-1), P26664
Assay: SPR sandwich, C11-14 capture
Conditions: remark: other sources report otherwise

Binder	expected % binding
B2	< 1%
B3	1.6%
